Results from article PMC9467883, “Autoinhibition of the GEF activity of cytoskeletal regulatory protein Trio is disrupted in neurodevelopmental disorder-related genetic variants” (The Journal of Biological Chemistry, 2022).

B1: Human Trio GEF1 (domain or fragment)
chain: not shown
modifications: His tag omitted (used for Ni-NTA immobilization). The GEF1 limits are not printed: the C-terminus 1599 comes from the printed SR6-GEF1 construct (788-1599), and the N-terminus about 1284 follows the …
B2: Human Trio SR6-GEF1 (domain or fragment)
chain: not shown
notes: Trio, human, spectrin repeats 6-9 appended to the GEF1 domain, 99 kDa; amino acids 788 to 1599 as stated for SR6-GEF1 in the modelling paragraph; Cloned into the pFastBac1 HTa vector; The limits 788-1599 are printed for the modelled SR6-GEF1, not in the cloning paragraph; also called His-SR6-GEF1; WT SR6-GEF1; source: Hi5 cells infected with baculovirus, purified (Ni-NTA, S200 Increase)

Assays:
[1] = target: Human Rac1 (human, UniProt P63000 1-192); assay: BLI; ForteBio BLItz; His-GEF1 (0.5 uM) or SR6-GEF1 (2 uM) loaded on Ni-NTA biosensors; nucleotide-free Rac1 at 4-5 concentrations in assay buffer (20 mM Hepes pH 7.25, 150 mM KCl, 5% glycerol, 0.01% TritonX-100, 1 mM DTT); Kd = koff/kon from the linear fit of kobs against Rac1 concentration; details: both partners purified
[2] = target: Human Rac1 (human, UniProt P63000 1-192); assay: as above; details: both partners purified; remark: listed apart in the source

| Binder | Kd [1] [nM] | Kd [2] [nM] |
| --- | --- | --- |
| B1 | 151 |  |
| B2 |  | 316 |
